Target: cytoplasmic dynein-1 heavy chain (human (endogenous in HEK-293)) (UniProt Q14204)
Assay: co-IP + SEC; FLAG immunoprecipitate (GF buffer: 50 mM Tris-HCl pH 8.0, 150 mM NaCl, glycerol, 0.2% Triton X-100) run on Superose 6 Increase 10/300 GL; fractions blotted with anti-FLAG, anti-HC, anti-p150; percent = intensity incorporated/(free + incorporated)

UniProt Q14204, sequence (Q14204 whole entry): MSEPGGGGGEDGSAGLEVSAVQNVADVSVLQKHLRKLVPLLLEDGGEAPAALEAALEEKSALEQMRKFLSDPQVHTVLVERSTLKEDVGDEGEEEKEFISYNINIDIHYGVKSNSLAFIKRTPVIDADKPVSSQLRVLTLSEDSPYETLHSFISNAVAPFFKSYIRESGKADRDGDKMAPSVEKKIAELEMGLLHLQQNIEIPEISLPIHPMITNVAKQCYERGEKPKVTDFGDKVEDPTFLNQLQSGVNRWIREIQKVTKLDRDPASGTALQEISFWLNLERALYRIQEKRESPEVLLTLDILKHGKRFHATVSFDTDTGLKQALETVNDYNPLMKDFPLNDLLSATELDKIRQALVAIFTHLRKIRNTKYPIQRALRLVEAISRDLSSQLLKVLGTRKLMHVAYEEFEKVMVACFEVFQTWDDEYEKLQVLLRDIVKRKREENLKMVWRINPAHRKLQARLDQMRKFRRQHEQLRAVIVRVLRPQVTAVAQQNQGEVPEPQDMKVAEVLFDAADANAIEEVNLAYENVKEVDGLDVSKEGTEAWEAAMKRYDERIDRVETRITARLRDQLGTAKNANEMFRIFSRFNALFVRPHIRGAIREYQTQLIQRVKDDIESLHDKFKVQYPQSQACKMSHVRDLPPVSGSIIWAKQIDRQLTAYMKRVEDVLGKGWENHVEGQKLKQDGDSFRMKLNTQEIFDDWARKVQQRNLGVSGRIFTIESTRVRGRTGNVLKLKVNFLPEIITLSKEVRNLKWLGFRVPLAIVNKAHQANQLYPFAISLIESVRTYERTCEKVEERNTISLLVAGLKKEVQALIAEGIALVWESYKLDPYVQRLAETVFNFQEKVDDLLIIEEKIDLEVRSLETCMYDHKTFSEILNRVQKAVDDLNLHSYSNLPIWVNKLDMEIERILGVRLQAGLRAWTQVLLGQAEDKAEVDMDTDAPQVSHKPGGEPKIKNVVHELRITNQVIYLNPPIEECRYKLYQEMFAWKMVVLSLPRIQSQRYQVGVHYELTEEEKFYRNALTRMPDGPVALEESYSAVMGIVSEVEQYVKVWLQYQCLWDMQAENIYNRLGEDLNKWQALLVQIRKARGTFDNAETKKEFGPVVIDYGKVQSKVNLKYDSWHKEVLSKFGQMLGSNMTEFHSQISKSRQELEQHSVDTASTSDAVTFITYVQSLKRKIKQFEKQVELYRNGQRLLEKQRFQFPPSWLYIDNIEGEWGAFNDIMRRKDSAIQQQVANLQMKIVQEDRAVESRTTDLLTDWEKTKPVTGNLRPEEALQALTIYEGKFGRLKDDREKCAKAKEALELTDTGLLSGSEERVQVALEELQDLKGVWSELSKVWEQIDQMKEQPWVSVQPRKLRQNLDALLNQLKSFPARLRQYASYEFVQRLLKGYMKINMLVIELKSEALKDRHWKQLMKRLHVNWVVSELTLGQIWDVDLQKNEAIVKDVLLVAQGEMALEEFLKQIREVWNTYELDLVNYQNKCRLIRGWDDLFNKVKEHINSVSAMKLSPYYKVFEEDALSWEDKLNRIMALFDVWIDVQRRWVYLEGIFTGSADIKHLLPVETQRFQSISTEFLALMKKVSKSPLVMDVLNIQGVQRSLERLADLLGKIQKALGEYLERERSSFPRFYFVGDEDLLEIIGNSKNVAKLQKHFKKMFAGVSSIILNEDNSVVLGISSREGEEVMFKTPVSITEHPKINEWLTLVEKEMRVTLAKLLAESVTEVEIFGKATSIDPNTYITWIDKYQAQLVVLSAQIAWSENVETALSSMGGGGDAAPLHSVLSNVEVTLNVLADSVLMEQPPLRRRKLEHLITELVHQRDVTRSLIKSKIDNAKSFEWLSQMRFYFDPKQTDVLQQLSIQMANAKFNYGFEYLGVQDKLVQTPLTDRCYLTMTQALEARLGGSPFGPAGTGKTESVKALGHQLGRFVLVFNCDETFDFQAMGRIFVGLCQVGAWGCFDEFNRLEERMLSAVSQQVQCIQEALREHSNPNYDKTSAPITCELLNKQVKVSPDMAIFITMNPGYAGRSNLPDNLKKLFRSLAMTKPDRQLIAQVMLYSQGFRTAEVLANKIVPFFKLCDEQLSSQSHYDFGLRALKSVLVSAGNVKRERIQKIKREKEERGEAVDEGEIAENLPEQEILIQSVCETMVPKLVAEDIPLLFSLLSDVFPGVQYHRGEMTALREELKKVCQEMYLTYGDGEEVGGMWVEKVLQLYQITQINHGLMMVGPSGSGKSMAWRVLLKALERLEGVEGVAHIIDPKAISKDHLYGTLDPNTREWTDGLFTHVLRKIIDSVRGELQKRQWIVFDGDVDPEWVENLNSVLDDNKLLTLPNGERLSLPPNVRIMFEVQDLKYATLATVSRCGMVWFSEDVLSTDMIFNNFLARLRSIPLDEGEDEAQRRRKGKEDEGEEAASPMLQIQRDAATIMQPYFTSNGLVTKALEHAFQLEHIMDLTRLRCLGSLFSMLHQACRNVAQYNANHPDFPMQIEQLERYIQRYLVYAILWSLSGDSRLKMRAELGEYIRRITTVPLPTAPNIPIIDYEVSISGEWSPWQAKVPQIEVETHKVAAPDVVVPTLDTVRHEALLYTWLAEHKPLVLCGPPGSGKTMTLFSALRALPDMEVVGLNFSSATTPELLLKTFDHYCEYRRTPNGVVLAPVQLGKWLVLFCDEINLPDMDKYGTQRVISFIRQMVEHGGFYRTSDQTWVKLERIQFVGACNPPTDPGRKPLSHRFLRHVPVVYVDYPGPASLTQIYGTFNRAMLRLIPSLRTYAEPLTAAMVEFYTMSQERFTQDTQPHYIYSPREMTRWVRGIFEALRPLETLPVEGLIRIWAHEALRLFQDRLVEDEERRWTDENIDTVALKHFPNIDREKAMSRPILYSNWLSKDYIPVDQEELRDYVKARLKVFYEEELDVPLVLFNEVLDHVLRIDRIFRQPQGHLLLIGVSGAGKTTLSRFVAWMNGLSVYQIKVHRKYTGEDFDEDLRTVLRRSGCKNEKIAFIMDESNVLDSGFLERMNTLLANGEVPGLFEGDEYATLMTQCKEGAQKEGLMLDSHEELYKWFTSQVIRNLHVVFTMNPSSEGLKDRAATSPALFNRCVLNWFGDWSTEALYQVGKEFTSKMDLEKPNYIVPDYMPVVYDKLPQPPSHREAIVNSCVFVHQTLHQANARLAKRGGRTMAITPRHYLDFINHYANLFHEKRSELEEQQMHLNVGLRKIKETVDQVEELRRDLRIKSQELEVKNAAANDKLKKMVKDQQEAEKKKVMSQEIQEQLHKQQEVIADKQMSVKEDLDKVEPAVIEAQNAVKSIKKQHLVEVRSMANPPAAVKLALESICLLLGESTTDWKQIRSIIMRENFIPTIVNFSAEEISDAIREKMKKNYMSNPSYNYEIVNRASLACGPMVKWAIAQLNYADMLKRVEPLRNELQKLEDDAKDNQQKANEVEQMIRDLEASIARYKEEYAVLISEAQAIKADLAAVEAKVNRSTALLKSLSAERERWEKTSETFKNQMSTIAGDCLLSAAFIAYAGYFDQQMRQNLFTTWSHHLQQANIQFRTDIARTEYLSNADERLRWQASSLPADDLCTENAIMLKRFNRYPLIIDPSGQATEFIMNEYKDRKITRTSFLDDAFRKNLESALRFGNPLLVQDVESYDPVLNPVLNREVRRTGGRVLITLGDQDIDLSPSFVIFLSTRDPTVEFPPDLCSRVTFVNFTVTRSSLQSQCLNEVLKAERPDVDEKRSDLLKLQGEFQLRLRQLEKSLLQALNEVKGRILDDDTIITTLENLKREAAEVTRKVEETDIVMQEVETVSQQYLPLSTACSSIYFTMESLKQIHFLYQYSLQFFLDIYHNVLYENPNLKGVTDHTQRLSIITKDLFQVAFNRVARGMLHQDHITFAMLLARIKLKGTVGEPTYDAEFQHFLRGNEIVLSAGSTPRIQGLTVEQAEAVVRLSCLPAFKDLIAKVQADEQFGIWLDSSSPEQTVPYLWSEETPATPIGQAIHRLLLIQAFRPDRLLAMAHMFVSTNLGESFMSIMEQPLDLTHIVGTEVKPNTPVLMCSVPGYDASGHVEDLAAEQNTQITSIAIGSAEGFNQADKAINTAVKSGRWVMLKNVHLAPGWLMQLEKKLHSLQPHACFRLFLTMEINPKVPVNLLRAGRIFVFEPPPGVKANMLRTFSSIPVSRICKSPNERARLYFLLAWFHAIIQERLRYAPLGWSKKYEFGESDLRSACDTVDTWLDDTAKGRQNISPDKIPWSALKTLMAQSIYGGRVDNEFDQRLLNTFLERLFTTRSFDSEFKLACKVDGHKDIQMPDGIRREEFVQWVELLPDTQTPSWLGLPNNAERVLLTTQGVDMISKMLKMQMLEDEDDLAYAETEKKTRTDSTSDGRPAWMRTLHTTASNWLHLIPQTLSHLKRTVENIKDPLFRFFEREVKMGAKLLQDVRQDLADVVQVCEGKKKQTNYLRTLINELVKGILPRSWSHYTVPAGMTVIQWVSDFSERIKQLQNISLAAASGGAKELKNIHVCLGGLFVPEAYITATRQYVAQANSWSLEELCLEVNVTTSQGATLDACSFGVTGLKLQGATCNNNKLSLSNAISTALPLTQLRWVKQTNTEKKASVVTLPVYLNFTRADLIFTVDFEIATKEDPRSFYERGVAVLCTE

Question: Which percent of the tagged subunit incorporated into the complex does the source give for IC2-BioID-3×FLAG (natural protein) here?
Answer: 51%
